# A protein production outcome set (Wang et al. 2014)
# Assay: label from the status in PepcDB records
row,Sequence,protein production
1,MKHLTVYFLLALQGVLFSFSLSAATPQNAIAYHDGNVRFSVLTDGVIRMEWSPSGSFTDDPSFVAIHRNLPVPKYTVQNKNATVVISTARMKLKYKKGQGPFTKDNLTITSAKGMFPFQWTPGTIQKGNLKGTDRTLDGFEGDHNIYSHQDMKLEDGLLSTDGWTLIDDSKNFLFDNSEWAWVKEREHKDGQDWYFMAYGHDYKAALKDFTVFAGKVPLPPRYAFGYWWSRYWSYSDKEMRQLVDNFHTYNIPLDVLVVDMDWHYTDPGFGGWTGWTWNRRLFPDPAKFLGYLKSNDLKITLNLHPADGVAPYEEKYPEMAQWMGVDTAKQERIPWVVSDKRFINGMFNKVLRPMEKQGVDFWWLDWQQWMYDKKVDSLSNTWWINYVFFSDMERNRDTRPMLYHRWGGLGNHRYQIGFSGDAVISWKSLEFQPYFTNCASNVLYGYWSHDIGGHMFKGGDKEILDPELFTRWMQYGALTPVMRTHSTKNSVLNKELWNFKGDYFEALRNSILFRYQLAPYIYTMARETYDNGISICRPMYYDYPEAKEAYDFKSEYMFGDQILVAPITTPMQNGLSTVKVWLPEGNDWFEWTTGTLLKGGQIIERSFTLTEYPVYVKAGSVLPLYNRVKNLNSNSEEIIVNIFPGENGSFTFYEDNGNDKYYANEYARTRMYTERKENHLTVTVGPRQGKYRNMPTDRQFKIKVLGSAIPETITINGNRAEYEYIGDELALLITIPQTACDQEKTIEIQYSTSIPELNDGIVSQFKRFSKAITALKYRDAGIVLTPTMGATEATSIALTYSPERFNELIETFKRNYSQMPEMLKEQKLNEANSQWFMKAIGWKK,failed
2,MKHTIGILGGMGPAATADMLEKFVELRHASCDQQHIPLIVSSIPDIPDRTACLLSGGPSPYRYLERYLHMLEDAGAECIVIPCNTAHYWFDDLQNVAKARMISILDATLGDIPPSARHVGLLATNATLATGLYQKKALARGLTLIQPEDAGQALVMQAIYTLKRGDKTAAQALLLPQIDSLIARGAQAIIMGCTEIPLIVAGHERAIACPMIDSTASLVRAAIRWYESWPDTRASLTGEQRLTA,not failed
3,MKHVDTEIPTEEQIHEAEKFGFHGQVQAAKIRFDRYFPGVLASITVAAAATFLSDHYGAPTMLFALLIGMAFRFLSEDESRALVGIQFASTTVLRIGVALLGMRITLGQIQSLGVKPVVMVFFSVLLTILFGLALSKMMGRGKRFGVLTGGSVGICGASAALAIAAVLPQDEYSERNTIFTVISITALSTLAMIAYPVVAQWFGLDHQAAGIFLGGTIHDVAQVVGAGYSVSEQTGDTATVIKLLRVSMLVPVVFILSLIFHKRNQKDGNAPRRTLLPPFIIFFVLFVGINSLGVVPKPATQFINDVSRWCLVTAIGALGMKTSLKSLFEVGWKPVSIMIAETVFLAVLVLGSVVWMS,failed
4,MKIAALYDIHGNYPALKEVLKQVKKLSPDLVVLGGDLIAGPMPLETLSLLKHVSTTFKTVGIMGNNDQDIVDIYAKKRVGLSRKATEQLTWIANQLSYKQVSFLRNLLPSISIGNYFFCHAVKNDNTTVFSPQQNKAYIETLFKGVQESYIICGHTHIQFELSLPNKKIINAGSIGMPFSNQFGAQWLWLDDNRIEYKRTIFNQQAAIQLISQTEYPFKNEFIANNLRSTISLSQGYSILNTLIRAQNAQHDLSLEHHHHHH,not failed
5,MKIADGVYVHFIPTQKYKTNRIVFRMTGSLNKQTIAKRALVSQMLATANQTYPTVQSFKERLASLYGTQLSTKVSTKGLTHSVDIELTYLKDFFIPMNTSLFWEVLGFLMDCLYNPLSIVAQYQNKVFDIEKQNLMTYLDVDTENNYYYSEVQGRELYFVNEALKVPKYGRVELVEAETSFTAYQEFQSMLTKDRIDIFMVGEFDDYQVLRGLHRFPLEGRQVDLQFSYNQSYSKVVKEKIETRQTSQSILQLGYQFPCQYGDKDYFALIVFNGMLGEFAHSALFTKIREKEGLAYSIGSQFDAFTGLLEIYAGIEKSNRNQAMRGIIRELNHIKLGRFSSSLFNQTKKIIRMNALLSEDHALTLVEQHFNKVIFGDKKISLEDWLDKIEKVTKKDVCRIARQVKLQSLFFLEGVS,failed
6,MKIAVMGYGTIGSGVVEVLEINKEKIAKRAGEPIEVKYVLDLREFPGTPIENKIVHDYKVIAEDPEIGIVVETMGGVEPAFTFVKAMLEAGKQVATSNKNLVAAKGAELIKVARDHGVNFQFEASVGGGIPIIRPLNKCLTADEIEEITGILNGTTNYMLTKMTEEGADFDEVLKDAQDKGYAEKDPTADIEGYDPCRKIAILTSLVAGQQVDFEDIHCEGITKITPEDIKYAKAMHRAIKLLASSRKVGDSYTCLVAPYMIDDTHPLSGVNGVFNGVFLRGNVLGDAMFYGSGAGKLPTASAVVADVVDMTKHQNTNIYIDWKPEKLTLVSYDDSVNSFFVRTDSPKSEVEAVFGHVDYIEDVVDGEYAFTTGDMTEKDFADKASKINVINRIRL,failed
